For one assay, the target named is T1, Pan1 (S. cerevisiae, UniProt P32521 1-1480).
T1 construct: Pan1, S. cerevisiae; also called Pan1-1myeGFP; Pan1-3mCherry; source: chromosomally tagged at the endogenous locus, in the cytoplasm of living S. cerevisiae cells
T1 sequence (looked up): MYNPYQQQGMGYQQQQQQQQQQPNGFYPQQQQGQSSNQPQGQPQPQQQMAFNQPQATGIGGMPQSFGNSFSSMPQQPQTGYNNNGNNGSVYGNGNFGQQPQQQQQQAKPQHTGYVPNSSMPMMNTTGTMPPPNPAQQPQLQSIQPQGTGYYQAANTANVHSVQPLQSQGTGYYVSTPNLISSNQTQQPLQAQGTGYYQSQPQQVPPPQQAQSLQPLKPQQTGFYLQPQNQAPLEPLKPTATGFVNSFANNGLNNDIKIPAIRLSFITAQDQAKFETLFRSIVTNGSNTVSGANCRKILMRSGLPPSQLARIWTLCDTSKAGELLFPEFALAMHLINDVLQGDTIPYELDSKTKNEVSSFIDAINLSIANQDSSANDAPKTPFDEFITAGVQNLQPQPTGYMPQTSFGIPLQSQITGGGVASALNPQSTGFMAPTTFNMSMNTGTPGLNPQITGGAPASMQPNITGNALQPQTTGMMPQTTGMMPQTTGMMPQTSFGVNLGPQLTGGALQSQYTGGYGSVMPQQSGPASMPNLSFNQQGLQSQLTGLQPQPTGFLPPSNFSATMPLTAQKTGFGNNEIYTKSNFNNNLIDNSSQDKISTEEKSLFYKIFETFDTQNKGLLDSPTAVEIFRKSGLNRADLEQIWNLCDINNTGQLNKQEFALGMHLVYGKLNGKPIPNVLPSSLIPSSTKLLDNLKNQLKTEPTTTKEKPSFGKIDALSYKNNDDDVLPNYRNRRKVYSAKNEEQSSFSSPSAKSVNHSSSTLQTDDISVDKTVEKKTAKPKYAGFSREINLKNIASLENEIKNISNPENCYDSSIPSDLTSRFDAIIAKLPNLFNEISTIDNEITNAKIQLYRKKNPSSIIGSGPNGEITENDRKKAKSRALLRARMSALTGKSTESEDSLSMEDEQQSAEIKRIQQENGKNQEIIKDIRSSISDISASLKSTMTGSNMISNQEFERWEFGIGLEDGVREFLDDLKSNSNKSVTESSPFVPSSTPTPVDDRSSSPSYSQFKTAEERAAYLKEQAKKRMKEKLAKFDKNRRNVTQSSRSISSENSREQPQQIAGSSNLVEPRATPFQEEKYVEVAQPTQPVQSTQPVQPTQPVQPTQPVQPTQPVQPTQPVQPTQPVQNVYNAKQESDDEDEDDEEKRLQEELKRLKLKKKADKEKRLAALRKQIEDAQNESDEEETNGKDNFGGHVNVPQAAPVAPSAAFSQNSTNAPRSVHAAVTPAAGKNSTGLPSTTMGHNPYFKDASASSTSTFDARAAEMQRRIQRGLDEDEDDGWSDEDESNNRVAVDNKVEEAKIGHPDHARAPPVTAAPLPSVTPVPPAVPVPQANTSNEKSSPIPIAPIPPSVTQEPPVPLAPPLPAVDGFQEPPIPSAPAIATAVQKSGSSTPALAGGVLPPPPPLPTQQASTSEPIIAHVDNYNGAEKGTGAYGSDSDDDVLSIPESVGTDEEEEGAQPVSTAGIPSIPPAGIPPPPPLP
The assay is described as follows: fluorescence cross-correlation spectroscopy (FCCS); in the cytoplasm of living yeast cells; first-named protein green (3myeGFP or 1myeGFP; eGFP for Don1), second red (3mCherry); self-interaction in diploid strains with one allele of each colour; apparent or effective KD (Kdeff) from single-cell measurements; only Kdeff values < 1000 nM are shown; values for self-interactions are upper limits. The conditions noted are these: partners not purified.

For a further assay, the target named is T2, Sla2 (S. cerevisiae, UniProt P33338 1-968).
T2 construct: Sla2, S. cerevisiae; also called Sla2-3myeGFP; Sla2-3mCherry; source: chromosomally tagged at the endogenous locus, in the cytoplasm of living S. cerevisiae cells
T2 sequence (looked up): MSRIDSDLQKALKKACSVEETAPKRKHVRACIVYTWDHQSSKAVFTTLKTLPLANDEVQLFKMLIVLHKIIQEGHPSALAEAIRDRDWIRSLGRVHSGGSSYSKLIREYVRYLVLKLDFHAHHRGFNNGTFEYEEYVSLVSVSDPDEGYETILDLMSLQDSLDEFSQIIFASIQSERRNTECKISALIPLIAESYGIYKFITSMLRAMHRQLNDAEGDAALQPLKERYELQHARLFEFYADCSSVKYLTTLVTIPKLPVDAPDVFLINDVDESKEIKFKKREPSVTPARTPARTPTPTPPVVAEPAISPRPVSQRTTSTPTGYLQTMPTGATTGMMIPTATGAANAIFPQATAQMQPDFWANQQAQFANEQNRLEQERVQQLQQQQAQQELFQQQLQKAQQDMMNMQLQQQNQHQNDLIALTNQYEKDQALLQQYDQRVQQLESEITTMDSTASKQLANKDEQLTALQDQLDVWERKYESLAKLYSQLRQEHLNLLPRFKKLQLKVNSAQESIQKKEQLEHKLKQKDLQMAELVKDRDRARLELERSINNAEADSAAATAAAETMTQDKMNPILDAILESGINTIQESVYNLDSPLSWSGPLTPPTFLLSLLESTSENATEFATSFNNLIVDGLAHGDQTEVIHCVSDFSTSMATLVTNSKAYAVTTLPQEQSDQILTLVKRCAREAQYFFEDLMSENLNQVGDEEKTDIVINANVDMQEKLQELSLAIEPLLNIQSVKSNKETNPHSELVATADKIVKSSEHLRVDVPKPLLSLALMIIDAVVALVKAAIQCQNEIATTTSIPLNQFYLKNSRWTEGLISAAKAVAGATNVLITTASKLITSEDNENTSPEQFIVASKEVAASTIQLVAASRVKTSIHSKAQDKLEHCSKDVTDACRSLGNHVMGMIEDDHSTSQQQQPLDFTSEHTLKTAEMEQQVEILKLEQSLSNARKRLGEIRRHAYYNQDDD
Described as above. The conditions noted are these: partners not purified.

B1: End3 (natural protein, S. cerevisiae, UniProt P39013 1-349, looked up)
chain: MPKLEQFEIKKYWQIFSGLKPIENKVNHDQVLPILYNSKLDSSVLNKIWFLADIDDDDNLDFEEFVICMRLIFDMVNKNISSVPDELPDWLIPGSKVNLIKERKKRKQIENADLPPKKEIKVDWYMSPDDLNQYEKIYNSCAKLTDGTITFNELSTKLSTKFFNISKTDLNKVWSLINPQNLPSIDRDPTFYFIHCLRQRNDLGAEIPASLPNSLAEVCNKKQLSYDLRSSQPPTKRKEEANEVDNLRDNGQNSSSDSSGSNVLSNEDSIKQKYASLTDDQVANMREQLEGLLNYKKSEKTQGGSKLSKRINIRSITDDLDNIEQQVEVLENYLNNKRHELQALQAEIN
notes: End3, S. cerevisiae; also called End3-3myeGFP; End3-3mCherry; source: chromosomally tagged at the endogenous locus, in the cytoplasm of living S. cerevisiae cells
Take B1: the Kd with Pan1 was 27 nM; with Sla2, 622 nM.

Values taken from paper PMC4299599, “Quantification of cytosolic interactions identifies Ede1 oligomers as key organizers of endocytosis” (Molecular Systems Biology, 2014).
